Results published in US20210063414A1, “METHODS FOR PREVENTING AND/OR TREATING BONE LOSS CONDITIONS BY MODULATING IRISIN” (Dana-Farber Cancer Institute, Inc., priority 2018, published 2021).

Target: T1, MLO-Y4 cell surface proteins (Mus musculus, UniProt E9PW83)
T1 construct: endogenous in cells; host or cells: MLO-Y4
T1 sequence (E9PW83 1-1143): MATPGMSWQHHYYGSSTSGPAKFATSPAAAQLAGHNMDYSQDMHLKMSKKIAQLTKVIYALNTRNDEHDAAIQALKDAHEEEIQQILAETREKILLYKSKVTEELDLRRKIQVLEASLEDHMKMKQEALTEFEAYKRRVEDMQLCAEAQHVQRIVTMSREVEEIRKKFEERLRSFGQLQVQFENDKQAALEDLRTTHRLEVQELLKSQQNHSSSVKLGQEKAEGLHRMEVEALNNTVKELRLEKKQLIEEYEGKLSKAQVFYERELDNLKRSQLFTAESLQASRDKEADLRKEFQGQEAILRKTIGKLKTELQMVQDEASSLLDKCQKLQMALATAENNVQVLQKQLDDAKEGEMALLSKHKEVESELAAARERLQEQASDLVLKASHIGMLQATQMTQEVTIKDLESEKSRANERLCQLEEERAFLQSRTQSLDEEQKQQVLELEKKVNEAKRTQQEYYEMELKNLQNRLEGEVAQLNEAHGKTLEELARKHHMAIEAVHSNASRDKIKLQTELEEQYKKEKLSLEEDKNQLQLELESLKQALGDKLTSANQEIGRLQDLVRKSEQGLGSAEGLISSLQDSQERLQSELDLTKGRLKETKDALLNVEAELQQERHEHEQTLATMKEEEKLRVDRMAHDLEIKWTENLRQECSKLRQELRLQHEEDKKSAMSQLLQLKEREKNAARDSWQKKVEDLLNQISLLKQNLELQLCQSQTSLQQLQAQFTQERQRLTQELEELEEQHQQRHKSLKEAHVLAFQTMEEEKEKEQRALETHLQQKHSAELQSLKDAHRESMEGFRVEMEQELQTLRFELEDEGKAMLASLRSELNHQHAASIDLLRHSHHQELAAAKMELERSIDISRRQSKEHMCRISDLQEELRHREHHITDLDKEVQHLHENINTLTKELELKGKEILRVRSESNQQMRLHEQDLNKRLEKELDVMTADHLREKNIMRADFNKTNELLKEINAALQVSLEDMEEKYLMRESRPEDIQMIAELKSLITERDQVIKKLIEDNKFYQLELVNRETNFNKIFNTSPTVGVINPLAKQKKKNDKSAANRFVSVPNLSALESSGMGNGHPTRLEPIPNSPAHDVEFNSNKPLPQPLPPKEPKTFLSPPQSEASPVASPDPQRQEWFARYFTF
Test: Crosslinking/co-immunoprecipitation/mass spectrometry (TMT quantitative proteomics) to identify irisin receptors
Assay type: binding
Details: co-precipitated protein Fam184a (E9PW83_MOUSE)
Summary of the method: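 Mouse MLO-Y4 cells were switched to serum-free FreeStyle medium for 4 h, chilled, then exposed to 10 nM His-tagged irisin (or adipsin as control) for 20 min. Cells were crosslinked with 1.5 mM DTSSP (30 min, ice), and bound proteins were pulled down on Ni-NTA and eluted with 250 mM imidazole. Eluates were separated by SDS-PAGE, trypsin-digested in gel, TMT 6-plex labelled and quantified by MS3-based LC-MS/MS on an Orbitrap Fusion Lumos.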

B1: irisin: secreted cleaved form of FNDC5; recombinant human/mouse irisin with C-terminal his tag produced in HEK293 cells (protein)
chain: DSPSAPVNVTVRHLKANSAVVSWDVLEDEVVIGFAISQQKKDVRMLRFIQEVNTTTRSCALWDLEEDTEYIVHVQAISIQGQSPASEPVLFKTPREAEKMASKNKDEVTMKE
modifications: left off: small tags and cut ends
notes: secreted cleaved form of FNDC5; recombinant human/mouse irisin with C-terminal his tag produced in HEK293 cells
  TMT signal-to-noise ratio: 8.102
  irisin/adipsin TMT signal-to-noise ratio: 0.009
